Values of other authors, collected in paper PMC6802610.
pKd: −log10 of the molar value.

Experiments:
[1] = molecular target: GDI (Homo sapiens) (UniProt P31150)
[2] = molecular target: Rab1 (Homo sapiens) (UniProt P62820)
Chain of Rab1 (Homo sapiens) (P62820 2-205): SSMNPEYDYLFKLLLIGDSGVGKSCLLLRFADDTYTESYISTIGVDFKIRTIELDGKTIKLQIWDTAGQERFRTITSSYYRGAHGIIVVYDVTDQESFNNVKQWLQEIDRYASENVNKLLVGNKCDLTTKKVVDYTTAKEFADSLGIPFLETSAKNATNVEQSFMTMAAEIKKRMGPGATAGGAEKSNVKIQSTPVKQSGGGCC

Chain of GDI (Homo sapiens) (P31150 whole entry): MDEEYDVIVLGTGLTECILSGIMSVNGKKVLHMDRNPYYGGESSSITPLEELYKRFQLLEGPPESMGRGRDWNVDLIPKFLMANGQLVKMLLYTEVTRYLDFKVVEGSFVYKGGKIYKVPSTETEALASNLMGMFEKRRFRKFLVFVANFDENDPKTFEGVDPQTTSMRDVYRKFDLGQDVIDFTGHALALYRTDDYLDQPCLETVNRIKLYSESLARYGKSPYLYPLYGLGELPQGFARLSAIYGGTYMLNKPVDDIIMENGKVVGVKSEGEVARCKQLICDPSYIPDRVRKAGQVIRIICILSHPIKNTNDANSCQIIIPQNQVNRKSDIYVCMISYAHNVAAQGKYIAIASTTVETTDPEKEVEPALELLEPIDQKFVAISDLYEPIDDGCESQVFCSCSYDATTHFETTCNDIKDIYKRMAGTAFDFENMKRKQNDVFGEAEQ
Chain of Rab1 (P62820 2-205): as the sequence (P62820 2-205) above
Chain of SidM/DrrA (Q5ZSQ3 whole entry): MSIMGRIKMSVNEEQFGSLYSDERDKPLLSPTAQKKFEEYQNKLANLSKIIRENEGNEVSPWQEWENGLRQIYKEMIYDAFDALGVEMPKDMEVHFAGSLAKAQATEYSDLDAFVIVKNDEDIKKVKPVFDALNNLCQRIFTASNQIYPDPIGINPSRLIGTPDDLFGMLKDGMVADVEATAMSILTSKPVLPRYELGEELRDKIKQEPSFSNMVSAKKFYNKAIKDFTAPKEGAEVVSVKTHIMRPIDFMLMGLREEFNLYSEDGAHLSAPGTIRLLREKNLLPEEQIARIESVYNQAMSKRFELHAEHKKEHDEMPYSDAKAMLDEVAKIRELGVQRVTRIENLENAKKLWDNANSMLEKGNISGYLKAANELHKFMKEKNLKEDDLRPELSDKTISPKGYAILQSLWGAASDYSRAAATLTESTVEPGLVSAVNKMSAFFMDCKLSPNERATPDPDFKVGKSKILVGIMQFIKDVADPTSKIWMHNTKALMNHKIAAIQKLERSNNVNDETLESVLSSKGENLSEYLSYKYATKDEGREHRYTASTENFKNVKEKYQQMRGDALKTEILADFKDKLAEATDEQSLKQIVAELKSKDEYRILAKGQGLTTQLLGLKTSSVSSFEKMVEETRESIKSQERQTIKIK

| Substance | pKd [1] | pKd [2] |
| --- | --- | --- |
| Rab1 (from UniProt P62820) | 7.70 |  |
| SidM/DrrA (from UniProt Q5ZSQ3) |  | 7.08 |
